Assay results published in the DeepSol protein solubility set.

Experiment: soluble on expression in E. coli; label from the status in PepcDB or PDB records

Q: Which “soluble on expression in E. coli” value does the source give for “MSDSSSSDGEDNQKFLGNRKKNLTKKKVVTEEIEKDDEEDVKEKSFAELGVSQPLCDACQRLGWMKPSKIQQAALPHALQGKDVIGLAETGSGKTGAFAIPVLQSLLDHPQAFFCLVLTPTRELAFQIGQQFEALGSGIGLIAAVIVGGVDMAAQAMALARRPHIIVATPGRLVDHLENTKGFNLKALKFLIMDEADRILNMDFEVELDKILKVIPRERRTYLFSATMTKKVSKLERASLRDPARVSVSSRYKTVDNLKQHYIFVPNKYKETYLVYLLNEHAGNSAIVFCATCATTMQIAVMLRQLGMQAVPLHGQMSQEKRLGSLNKFKSKAREILVCTDVAARGLDIPHVDMVINYDMPSQSKDYVHRVGRTARAGRSGIAITVVTQYDVEAYQKIEANLGKKLDEYKCVENEVMVLVERTQEATENARIEMKEMDEKKKSGKKRRQNDDFGDTEESGGRFKMGIKSMGGRGGSGGGRGGKKKKMSK” here?
A: Its value is “soluble”.

Q: With “MPQILVDADACPVKAEIKQVAKEFQLEVTFVASFNHYSVNTNGENWIFVDTGKESADMRMMNLAKKGDIIVTQDIGLASILLAKGTFVFSNRGELYREEEMSLMLDIRYRHAKERQQGKYSKGPKAMSDQDRSLFKDRLTTFLQNKLEHHHHHH” as the sequence, how does the “soluble on expression in E. coli” value read?
A: The value was “soluble”.

Q: For “GSFEEDLSQKNTWWSRGIYELLGYTPFEVEPRAELFFQHIKEPHRTLIKEHYLHLNQSQETQYISEDYEILTKKGEGRWLNSSVKLIRDEKGTLLKAQGAILDVT”, which “soluble on expression in E. coli” value is on record?
A: Its value is “not soluble”.

Q: Which “soluble on expression in E. coli” value does the source give for “MGSDKIHHHHHHMKIQQPSVLIPDPCNNPLAYYAIRCLKQANSEFNINVIVSSGQTLDDNEWLYFYKYSAYIDNLVVSANSMNSLEYLDEVIRIIENQGINLIFPASEEGFKFVSKYRYKLSKFCRIVALPSEENLDAAFDKWKLHLLLQKHNIPTPETVLLKEIENISQFNYPVILKPVDGSGGKNIQKFDSLEEENFQAICNYPNDVYIVQKYVPGHDIGCSVLCQDGQVLAYTIQQQLGLTEGFTPKIDKLKFVHDSAVIDIVTKTMNVLKWSGIANLDLRYNSQTGQINVIEINPRFWQSLMGSLSVGVNFPYILYLLSNNISFERISYKEQYYAKFHRFIQDAFNGSLEYSLSDTNVKYFLSDPSGILHFLFYKLMKQKLFQNMKSIFSLQSQKIQNVK” here?
A: Its value is “not soluble”.

Q: With “MEYFMSGKSIFDKLWDRHVITGDEGQPQLMYVDQHYIHEVTSPQAFQGLRDAGRKVRRPDLTFGTFDHNVPTVNIFDIRDAISKAQIDKLAENVIEFGIDNASHGSDKQGIVHMVGPETGRTQPGKFIVCGDSHTATHGAFGTIAFGIGTSEVEHVFATQTLWQVKPKK” as the sequence, how does the “soluble on expression in E. coli” value read?
A: The value was “not soluble”.

Q: For “MSLRPATDSPPLCAPPGAEVRAPSFVMPAGACDTHAHVISGDLERYPLVPDRSYTPPPAPEALYLEVLRAMGMQRGVLVQPSVYGTDNRYMLEVLQRHQDQLRGVAVVDEHVGDDELAHMHALGVRGVRINVLFRGGVNLDLMEHLAHRIADLGWHMQFLIDVRLLSEIEARMAKLPCAVVIDHFGHFPAHLGIKEAGFELLLRNVAEHGWWVKLSGAYRLSDQRPDYADTDALAHALLAVAPERMVWGSDWPHVALESTPDTSSLLDRLLSWAPSERQRQSILVDNPGALYDFKEGHHHHHH”, which “soluble on expression in E. coli” value is on record?
A: Its value is “soluble”.

Q: For “MENKHNPTSHTSHTWSELPELNPCVPLGTLLPDKSCPKTHPLADLIPPRQQQQFMHGNSWKLAPYGRSMIMRYAMQVRGQLAPTVLGINRTWKGDTCWNQIPKTSDCFHMVYKDHKLYFLNKTGSFKIFDFCGDIPQQTFEWSVKVERSQFGPPPPSNPWKVLATKLVVTVTGKVLKVEEMGGARPRTWSFRVFESMLLDQGITVLANDTGGFIRNTIYFSASHGNNTHDIYIFNLETQKTEPLHTLDSYSSSVQFYGAQWFVPSFKH”, which “soluble on expression in E. coli” value is on record?
A: The value was “soluble”.

Q: Which “soluble on expression in E. coli” value does the source give for “MVKTTEVVSEVSKVAGVRPWAGIFVVEIQEDILADEFTFEALMRTLPLASQARILNKKSFHDRCSNLCSQLLQLFGCSIVTGLNFQELKFDKGSFGKPFLDNNRFLPFSMTIGEQYVAMFLVKCVSTDEYQDVGIDIASPCNYGGREELELFKEVFSEREFNGLLKASDPCTIFTYLWSLKESYTKFTGTGLNTDLSLIDFGAISFFPAEGASMCITLDEVPLIFHSQWFNNEIVTICMPKSISDKINTNRPKLYNISLSTLIDYFIENDGL” here?
A: The value was “soluble”.

Q: With “MRILFIGDVVGSLGREALATYVPKLKKKYRPQVTIANGENAASGRGITGKIYKKFLQDGVDVVTMGNHTWDNKDIFEFIDDAKKMVRPANFPEDVPGQGMVFVKVNQLELAVINLQARTFMVPLEDPFKKAAELVAIARKRTPLIFVDFHGETTSEKQAMSWFLDGQVSAVVGTHTHVQTNDARILPKGTAFLSDVGMTGPYDGILGMKREPIIEKFMTALPKRFEVVETGRTILSACILEIDDQTGQAKMIEPIQISEDRPFQE” as the sequence, how does the “soluble on expression in E. coli” value read?
A: The value was “not soluble”.

Q: Which “soluble on expression in E. coli” value does the source give for “MGSDKIHHHHHHMEKIVQTAGRNALGEFAPEFAHFNDDVLFGENWNNQDIDVKTRSIITVVALMASGITDSSLIYHLQNAKEHGVTQKEIAAVITHVAFYAGWPKAWAVFNLAKEVWEAGEGDLPYEEEAMRAHAKEMAFPIGAPNDGFAQYFSGRSFLAPISTSQIGIFNVTFEPGCRNNWHIHHAKSGGGQILVCVAGRGYYQEEGKEAVEMKPGDCINIPTGVKHWHGAAPDEWFSHLAIEVPGVDCSNEWCEAVSEKEYAGLR” here?
A: The value was “not soluble”.

Q: Which “soluble on expression in E. coli” value does the source give for “MSLAYETFAFVYDEVMDESLYQKWLDFSNRHLPQGTQQILEMACGTGALAVDFAKSGYDVTALDLSEEMLMIASERAFEEEVPVQFVQGNMLDLSEVGQYQAITCFSDSLCYMANRQEVQQVFDEVYQALEEEGTFIFDVHSTYKIDSVFPEYSYHYQTEEFAFLWDSYAGEKEHSIEHFLTFFVKEQETDEHFVRYDELHQERTYSLDNYLRMLESAGFMNVKVYADFTDEAPTETSERWFFVCQRDEGHHHHHH” here?
A: Its value is “soluble”.

Q: Which “soluble on expression in E. coli” value does the source give for “MGHHHHHHSHLSFHFPPRVTGHPWSLVFCTSRDGFSLQSLYRRMEGCSGPVLLVLRDQDGQIFGAFSSSAIRLSKGFYGTGETFLFSFSPQLKVFKWTGSNSFFVKGDLDSLMMGSGSGRFGLWLDGDLFRGGSSPCPTFNNEVLARQEQFCIQELEAWLLS” here?
A: Its value is “not soluble”.

Q: With “PTARRDIRFAWSGDTAGQGWGIDDEGMRTYATMAQHQPDFFIHSGDTIYADGPMKDEVEKDGAVIWKNTTLIDEKRKVAETLAEFRGQWKYNLMDEHVQAMNALCPTFFQWDDHEVVNNWSDAKDLSADDRYTEKSVHVLQSRAARAFHEMTPLRITPAEPGRVYRKISYGPMLDVFFLDLRSYRGPNGASMEDEITDQSRILGAEQLAWIKRELAASTATWKVIASDMPIGLIVWDNWKEKAGAEAISNGDHGPAKGRELEIADLLRFIKSAGVRNTVWFTADVHYTAAHHYSPERAQFQDFDPFWEFVSGPLHAGTFGPNDLDRTFGPEVKFVKAPTPEQGVNLPPSMGLQFFGLVDIDAASQQMKVRLMDRGNTELWSVTLDPVLSAI” as the sequence, how does the “soluble on expression in E. coli” value read?
A: The value was “not soluble”.

Q: With “MNDYTQQLQGKKDYLKTLFAGLDVPEWEVYESPDKHYRMRAEFRIWHEGGEMFYAMFEKGQKASGASMIRCDRFEAASEAVNRLMPELIAAAAQSPELKKRWYAVEFLSTLSGEMLVTMIYHKRLDAEWMQAAQALQQQLDISVIGRSRGQKIVLKQDYVTETLKVGNRDFRYRQIEGS” as the sequence, how does the “soluble on expression in E. coli” value read?
A: Its value is “not soluble”.

Q: With “MSLDIARIAVHESVAKACPLEAMVAALQGPDVRVETVGDDASFDASDCVVTFSPREAFLDAAWVHGIRAGYDEFDVDAYEAAGTVLTNSTGIHGDTVPETVVGYLTAFARRLHVYRDRQRDNDWTQEPYDAPFTLTGEQVCVVGLGTIGQGVADRTDALGMDVVGVRRSGDPAENVERVYTPDELDAAVADARFVVLCCPLTEETEGMVDAALLAQMRADSYLVNVARGPVVVEDALLNALDTGTIAGAALDAHWAEPLPDDHPLWNHESAIVTPHVAAATSRYHEDIAALVRENVERATRGESLRNRVAEGHHHHHH” as the sequence, how does the “soluble on expression in E. coli” value read?
A: Its value is “not soluble”.

Q: For “MNAPVKFEYFKNPKNRELTAVELEAFAKELDQIKQEVLDDIGEKDAKYIRRVYSAVRYSSMLGRACLFAGWFPPAWILGTGLLGFSKIMENMELGHNVMHGQYDWMNDPKFNGQTYEWDTVGTADNWRQTHNYKHHTYTNIKGIDDDIGYGLLRLFPEQRWKPGFLLQPIYSIPFCMLFQWGVAIQNLEIGKLIYKRKTWKQFKQECKPTQKKIGKQLFKDYVFFPLIAGPAALPVFTGNLVANGIRNAWTFSIIFCGHFTKDVEVFPKTVLQNETRGHWYMRQIRGSSNLTGSEAFHILTGHLSHQIEHHLFPDVPARRYRQMAPKVEAVCKKYGLNYNNASLFKQYGQVLGRIVKYAFPFKKLEHHHHHH”, which “soluble on expression in E. coli” value is on record?
A: Its value is “soluble”.

Q: Which “soluble on expression in E. coli” value does the source give for “MKALIFAAGFGERMRPLTEHTPKPLLSVGGAPLIVWHLRKLAALGVDEAVINTSWLAEQFPQLLGDGSAYGLRLTYSYEGTTPLETGGGMLHALPLLGDAPFLLINGDIWTDFDFSRLSHAPKGLAELVLVDRPSYAARADFALDADGKVRVDLPATLTYSGIGMYRPALLRDWQSVNGPLPEQVGTAPRFALAPILRAKMAQGLIDGIHHPGRWTDVGTPQRLAALDAQLLGDGGLEHHHHHH” here?
A: Its value is “not soluble”.

Q: With “MEKENTNGGSVYVTVDGHFKPVHVSMKGTGEKGFLEFMLEDVEKALKETEMPVIGMMYYNVPDMGIVPHLWEGNNDDYLQRLEKAMDGHGIKLHRYLRLSEVVYCL” as the sequence, how does the “soluble on expression in E. coli” value read?
A: The value was “not soluble”.

Q: For “MSRDNQEIKAPEESSAEEQKEMDDKVTSPEKAEEIKLKSRYPNIGPKPGGSDFLRKRLQKGQKYFDSGDYNMAKAKMKNKQLPTAAPDKTEVTGDHIPTPQDLPQRKPSLVASKLAG”, which “soluble on expression in E. coli” value is on record?
A: The value was “soluble”.

Q: For “MGSDKIHHHHHHMIGLRLDGYDPDLHHDAAVAFCIRARDDELFSPRHQHRKGQLILALHGAITCEVENAMWMVPPQYAVWLPGSLPHSNHVTAGAELCFLFIEPAAVVMPERCCTLKISPLCRELILSLARRTDPERAQMPTQRLIQVLFDELPQQPQEQLQLPVSGHPKIRQMVETMAQEPARWNTLGQWASVFAMSERNLARLVVKETGLSFRRWRHQLQLILALQALIAGRNVQQTAQMLGYDSTTAFITMFKKGLGQTPGQYLTGELLLPHN”, which “soluble on expression in E. coli” value is on record?
A: Its value is “not soluble”.

Q: Which “soluble on expression in E. coli” value does the source give for “DRLTEEYGMHVYGIEFDEDRIIELRDRGYRIVAGDVTDPELWRRIELLDIPQLFAMSLPRYTDSDKVLARIHHDYPGATVATITQTRGREQALLTAGADVAVYLYEGVGDELADQAVAHLRQG” here?
A: Its value is “not soluble”.

Q: For “MGSDKIHHHHHHVEKLVILHTNDLHSHFENWPKIRRFMLGTRAAEQAEGASVLAFDDGDAMDRSAPLTEATQGQINVQLLNEIGYDAATIGNNEGVGNPHDVLEHLYDHANFPVALANLFEVDGSRPTWAKPFVRTQTRAGTRIAIVGFTAPFFLTYRPNGWQVKTVADVFPDILKQLSGTYDVLIVLSHLGIEADRHLAKQYPEIDVVIGGHTHHLLADGELHGTTLLTAAEKYGHYVGKVTLTLDDQHQIITRQAETFKTELMQAAAADPREIQGYESKGIALLKQHQVARLPKQLSIKYDGPSPLLDLGLEALADGAQVDAAILNAGLFLMPLGPGVVTQADLLTCLPHPMHLLKVTLSGKELWRLIMEMEKNRMFLRHFHMIGMSFRGKIFGDIGYRGISVNREKRVVLWHGKPLVPEQQYTFVTVDNFLFIPFFPTIEIMGSNELLFPKLLRNVVGEYLAQKYPL”, which “soluble on expression in E. coli” value is on record?
A: The value was “not soluble”.

Q: With “STSCVAEEPIKKIAIFGGTHGNELTGVFLVTHWLKNGAEVHRAGLEVKPFITNPRAVEKCTRYIDCDLNRVFDLENLSKEMSEDLPYEVRRAQEINHLFGPKNSDDAYDVVFDLHNTTSNMGCTLILGDSGNDFLIQMFHYIKTCMAPLPCSVYLIEHPSLKYATTRSIAKYPVGIEVGPQPHGVLRADILDQMRRMLKHALDFIQRFNEGKEFPPCAIDVYKIMEKVDYPRNESGDVAAVIHPNLQDQDWKPLHPGDPVFVSLDGKVIPLGGDCTVYPVFVNEAAYYEKKEAFAKTTKLTLNAKSIRSTLH” as the sequence, how does the “soluble on expression in E. coli” value read?
A: Its value is “soluble”.
